Laboratory results taken from US20230038638A1, “COMPLEMENT FACTOR I-RELATED COMPOSITIONS AND METHODS” (published 2023).
Residue numbers refer to the chain shown, from its start.

Assays:
[1] = biological target: T1, human C4b (human) (UniProt P0C0L4)
T1 sequence: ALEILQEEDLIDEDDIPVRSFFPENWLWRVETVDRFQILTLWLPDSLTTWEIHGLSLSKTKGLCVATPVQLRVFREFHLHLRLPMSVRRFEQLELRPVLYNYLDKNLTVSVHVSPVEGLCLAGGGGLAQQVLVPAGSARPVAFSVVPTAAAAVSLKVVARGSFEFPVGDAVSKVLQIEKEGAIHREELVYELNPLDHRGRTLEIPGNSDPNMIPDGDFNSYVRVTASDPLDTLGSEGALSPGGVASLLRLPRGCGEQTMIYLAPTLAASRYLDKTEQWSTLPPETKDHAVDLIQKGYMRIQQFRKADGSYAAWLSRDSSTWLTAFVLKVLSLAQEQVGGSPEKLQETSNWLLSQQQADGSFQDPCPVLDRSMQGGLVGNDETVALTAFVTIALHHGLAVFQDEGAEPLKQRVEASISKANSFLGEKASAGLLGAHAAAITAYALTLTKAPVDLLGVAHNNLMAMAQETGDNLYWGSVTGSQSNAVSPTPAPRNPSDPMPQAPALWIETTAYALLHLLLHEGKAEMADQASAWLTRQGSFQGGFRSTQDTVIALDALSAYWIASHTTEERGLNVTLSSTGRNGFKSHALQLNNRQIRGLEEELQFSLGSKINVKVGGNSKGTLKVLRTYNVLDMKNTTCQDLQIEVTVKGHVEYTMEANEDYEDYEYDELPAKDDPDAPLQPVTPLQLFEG

[2] = biological target: soluble human C3b (human) (UniProt P01024)
[3] = biological target: T1, human C4b (human); remark: listed apart in the source
[4] = biological target: T2, human C4b (human) (UniProt P0C0L5)
T2 sequence: T1 sequence with A151T, D317G, P364L, C365S, L368I, D369H, N420S, V451A, L454R, S530A

[5] = biological target: soluble human C3b (human) (UniProt P01024); remark: listed apart in the source

| C4c EC50 (nM) [1] | iC3b EC50 [2] | C4c EC50 [1] | Substance | other results |
| --- | --- | --- | --- | --- |
| 148 nM | > 500 nM | – | CFI-HSA variant R557D (enzyme) | – |
| 173 nM | 110 nM | – | CFI-HSA variant Y408L; N531G; ΔC-term (Δ558-PFISQYNV (SEQ ID NO: 14)-565) (enzyme) | – |
| 247 nM | 208 nM | – | CFI-HSA variant R557S (enzyme) | – |
| 234 nM | 3.6 nM | – | CFI-HSA variant E457G; D425R; E530Y (enzyme) | – |
| 19.2 nM | 6.6 nM | – | CFI-HSA variant T377G; N531G (enzyme) | – |
| – | 14.3 nM | 112 nM | CFI-HSA variant D425Y (enzyme) | – |
| > 1000 nM | 64.3 nM | – | CFI-HSA variant R365A (enzyme) | – |
| – | 20.4 nM | 60.1 nM | CFI-HSA variant N531G; P535A; GGSSGG (SEQ ID NO: 6); CR1(ccp15-17) (enzyme) | – |
| 120 nM | 286 nM | – | CFI-HSA variant R557Q (enzyme) | – |
| 52.6 nM | 10.8 nM | – | CFI-HSA variant E457G; E461Q; R557K (enzyme) | – |
| 51.1 nM | 97.1 nM | – | CFI-HSA variant N531G; E457G; E461Q; ΔC-term (Δ558-PFISQYNV (SEQ ID NO: 14)-565) (enzyme) | – |
| 17.3 nM | 24.6 nM | – | CFI-HSA variant Y408L; E457G; E461Q; R462K; N531G; R557K (enzyme) | – |
| – | 5.3 nM | 38.7 nM | CFI-HSA variant N531G; E461Q; R462K (enzyme) | – |
| – | 7 nM | 16.4 nM | CFI-HSA variant N531G; E457G; F464Y (enzyme) | – |
| > 1000 nM | 80.8 nM | – | CFI-HSA variant H370G (enzyme) | – |
| – | 106 nM | > 1000 nM | CFI-HSA variant R462K; F464Y (enzyme) | – |
| – | 5.9 nM | 18.4 nM | CFI-HSA variant N531G; E457G; E461Q; R462K (enzyme) | – |
| 96.3 nM | 288 nM | – | CFI-HSA variant R557P (enzyme) | – |
| – | 11.5 nM | 227 nM | CFI-HSA variant D425T (enzyme) | – |
| – | 14.2 nM | 87.6 nM | CFI-HSA variant D425W (enzyme) | – |

| C4c EC50 (nM) [1] | iC3b EC50 [2] | C4c EC50 [1] | Substance | other results |
| --- | --- | --- | --- | --- |
| 151 nM | > 500 nM | – | CFI-HSA variant R557E (enzyme) | – |
| – | 6.5 nM | 11.2 nM | CFI-HSA variant E457G; N531G (enzyme) | – |
| – | 37.5 nM | 95.9 nM | CFI-HSA variant Y408L; WT; GGSSGG (SEQ ID NO: 6); CR1(ccp15-17) (enzyme) | – |
| 126 nM | 8.9 nM | – | CFI-HSA variant E401G (enzyme) | – |
| – | – | 310 nM | CFI-HSA variant N404G (enzyme) | C4b Screen Ref Fold (fold of reference) [3]: 0.53; C4b Screen Ref Fold (fold vs CFI-HSA wild type) [4]: 0.31; iC3b Screen Ref Fold (fold of reference) [5]: 0.94; iC3b Screen Ref Fold (fold vs CFI-HSA wild type) [5]: 0.68 |
| – | 13.6 nM | 640 nM | CFI-HSA variant D425P (enzyme) | – |
| – | 28.1 nM | 29.1 nM | CFI-HSA variant E457G; N531G; WT; GGSSGG (SEQ ID NO: 6); CR1(ccp15-17) (enzyme) | – |
| – | 36.7 nM | 60 nM | CFI-HSA variant N531G; WT; GGSSGG (SEQ ID NO: 6); CR1(ccp15-17) (enzyme) | – |
| > 1000 nM | 41.7 nM | – | CFI-HSA variant D549P (enzyme) | – |
| – | 17.1 nM | 93.4 nM | CFI-HSA variant L307A (enzyme) | – |
| 43.1 nM | 32.7 nM | – | CFI-HSA variant E457G; N531G; E461Q; R462K; F464Y; GGSSGG (SEQ ID NO: 6); CR1 (ccp15-17) (from UniProt P17927) (enzyme) | – |
| – | 15.7 nM | 104 nM | CFI-HSA variant K534H (enzyme) | – |
| 98.8 nM | 198 nM | – | CFI-HSA variant R557H (enzyme) | – |
| 28.2 nM | 47.5 nM | – | CFI-HSA variant N531G; P535A; R557A (enzyme) | – |
| – | 5.4 nM | 24.2 nM | CFI-HSA variant N531G; E461Q (enzyme) | – |
| 12.3 nM | 4.3 nM | – | CFI-HSA variant D425R; Y408L; N531G; E457G; E461Q; R462K; F464Y; E530Y (enzyme) | – |
| 138 nM | 165 nM | – | CFI-HSA variant R557V (enzyme) | – |
| 117 nM | 128 nM | – | CFI-HSA variant R557I (enzyme) | – |
| 145 nM | 168 nM | – | CFI-HSA variant R557F (enzyme) | – |
| 10.9 nM | 4.3 nM | – | CFI-HSA variant T377G; E457G; E461Q; N531G (enzyme) | – |

| C4c EC50 (nM) [1] | iC3b EC50 [2] | C4c EC50 [1] | Substance | other results |
| --- | --- | --- | --- | --- |
| 158 nM | 21.7 nM | – | CFI-HSA variant A405G (enzyme) | – |
| 32.4 nM | – | – | CFI-HSA variant E457G; E461Q; F464Y; E530Y; N531G; P558S (enzyme) | C4b Screen Ref Fold (fold of CFI-HSA wild type) [3]: 4.03; iC3b Screen Ref Fold (fold of CFI-HSA wild type) [5]: 2.44 |
| 27.4 nM | 24.2 nM | – | CFI-HSA variant Y408L; E457G; E461Q; R462K; N531G; R557A (enzyme) | – |
| 20.7 nM | 5.9 nM | – | CFI-HSA variant T377G; E457G (enzyme) | – |
| – | 13 nM | 112 nM | CFI-HSA variant D425I (enzyme) | – |
| 14.9 nM | 4.5 nM | – | CFI-HSA variant T377G; E457G; E461Q (enzyme) | – |
| – | 10.7 nM | 123 nM | CFI-HSA variant D425H (enzyme) | – |
| 348 nM | 24.6 nM | – | CFI-HSA variant D459G (enzyme) | – |
| 17.8 nM | – | – | CFI-HSA variant Y408L; E416A; E457G; E461Q; R462K; N531G (enzyme) | C4b Screen Ref Fold (fold of CFI-HSA wild type) [3]: 4.04; iC3b Screen Ref Fold (fold of CFI-HSA wild type) [5]: 1.63 |
| 183 nM | – | – | CFI-HSA variant N531F (enzyme) | C4b Screen Ref Fold (fold of reference) [3]: 1.98; iC3b Screen Ref Fold (fold of reference) [5]: 1.09 |
| > 1000 nM | – | – | CFI-HSA variant K14A; Y20F; D26A; R35A; E38A; L304G; P305G; K306G; L307G; S308G (enzyme) | C4b Screen Ref Fold (fold of reference) [3]: 4.19; iC3b Screen Ref Fold (fold of reference) [5]: 0.04 |
| – | – | > 1000 nM | CFI-HSA variant P384A (enzyme) | C4b Screen Ref Fold (fold of reference) [3]: 0.29; C4b Screen Ref Fold (fold vs CFI-HSA wild type) [4]: 0.07; iC3b Screen Ref Fold (fold of reference) [5]: 0.03; iC3b Screen Ref Fold (fold vs CFI-HSA wild type) [5]: 0.03 |
| 27.3 nM | – | – | CFI-HSA variant Y408L; E457G; E461Q; R462K; E530Y; N531G; P558S (enzyme) | C4b Screen Ref Fold (fold of CFI-HSA wild type) [3]: 4.18; iC3b Screen Ref Fold (fold of CFI-HSA wild type) [5]: 2.06 |
| – | – | 102 nM | CFI-HSA variant G406D; Y408L; N531G; P535A (enzyme) | C4b Screen Ref Fold (fold of reference) [3]: 5.44; iC3b Screen Ref Fold (fold of reference) [5]: 0.96 |
| 13.2 nM | – | – | CFI-HSA variant Y408F; E457G; E461Q; R462K; F464Y; N531G (enzyme) | C4b Screen Ref Fold (fold of CFI-HSA wild type) [3]: 4.57; iC3b Screen Ref Fold (fold of CFI-HSA wild type) [5]: 1.87 |
| 30 nM | – | – | CFI-HSA variant E457G; E461Q; R462K; F464Y; E530Y; N531G; P558S (enzyme) | C4b Screen Ref Fold (fold of CFI-HSA wild type) [3]: 4.51; iC3b Screen Ref Fold (fold of CFI-HSA wild type) [5]: 2.69 |
| 51.7 nM | – | – | CFI-HSA variant E457G; E461Q; R462K; F464Y; K504H; N531G (enzyme) | C4b Screen Ref Fold (fold of CFI-HSA wild type) [3]: 4.01; iC3b Screen Ref Fold (fold of CFI-HSA wild type) [5]: 2 |
| – | – | 178 nM | CFI-HSA variant G406D; Y408L; N531G (enzyme) | C4b Screen Ref Fold (fold of reference) [3]: 5.16; iC3b Screen Ref Fold (fold of reference) [5]: 0.93 |
